Measured values published in US20100173800.

Molecular target: MuA transposase (bacteriophage Mu) (UniProt P07636)
Assay: cell_activity
Settings: HeLa electroporation; linear transposon about 100 cfu/ug; 5 bp target duplication in sequenced clones (Table 1)

Chain of MuA transposase (bacteriophage Mu) (P07636 whole entry): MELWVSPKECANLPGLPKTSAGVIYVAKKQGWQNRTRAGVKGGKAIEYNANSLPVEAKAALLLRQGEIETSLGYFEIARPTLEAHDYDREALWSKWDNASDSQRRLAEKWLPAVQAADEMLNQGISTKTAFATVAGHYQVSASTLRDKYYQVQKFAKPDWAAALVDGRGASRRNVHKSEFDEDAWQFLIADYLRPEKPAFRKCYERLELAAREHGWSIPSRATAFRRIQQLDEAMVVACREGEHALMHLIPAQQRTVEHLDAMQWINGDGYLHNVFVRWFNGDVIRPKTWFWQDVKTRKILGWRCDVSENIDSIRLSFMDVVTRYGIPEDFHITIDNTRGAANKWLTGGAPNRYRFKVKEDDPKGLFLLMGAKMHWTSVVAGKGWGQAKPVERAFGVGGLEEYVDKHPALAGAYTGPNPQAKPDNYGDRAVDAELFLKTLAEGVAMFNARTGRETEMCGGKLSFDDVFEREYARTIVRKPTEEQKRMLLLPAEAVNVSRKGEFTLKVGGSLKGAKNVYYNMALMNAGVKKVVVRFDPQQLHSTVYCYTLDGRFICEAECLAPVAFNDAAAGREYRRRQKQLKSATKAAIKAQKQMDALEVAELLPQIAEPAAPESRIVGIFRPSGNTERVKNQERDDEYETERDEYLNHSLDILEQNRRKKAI

For “Kan/Neo-Mu transposon (Kan/Neo-LoxP-Mu 2135 bp or Kan/Neo-p15A-Mu 2795 bp)”, the activity was 2400 cfu/µg DNA.
